Test results: PMC4705956

Target: Asp93 (UniProt position 93, WARYADWLFTT)
Test: UV-vis
Conditions: 298 K; 100 mM NaCl (Fig. 7 caption); the Methods state 4 M NaCl for UV-visible spectroscopy; Not stated for the titration; the Methods give 50 mM Tris-HCl for UV-visible samples; Folded, retinal-bound, detergent-solubilised. Light or dark adaptation is not stated.

Row | Substance | pKa
1 | Bacteriorhodopsin (HwBR) R82E mutant (Haloquadratum walsbyi; R82E) | 2.24
2 | Bacteriorhodopsin (HwBR) (Haloquadratum walsbyi) | 1.97
